Source: paper PMC6525185, “6mA-DNA-binding factor Jumu controls maternal-to-zygotic transition upstream of Zelda”

B1: 6mA-dsDNA probe (dsDNA)
DNA 1: GCTATTTATGCGTTCTTTTCTTCTTTCTCATTTCTATATTTATAGTGTGTGTGTGTGTGTGGGTGTGTTTGTTGTATGTGGTTAAATATGCTTCGTTTTTGTTTAATTGGTTTTTGTTTTTGTGATGATCATGGG
DNA 2: CCCATGATCATCACAAAAACAAAAACCAATTAAACAAAAACGAAGCATATTTAACCACATACAACAAACACACCCACACACACACACACACTATAAATATAGAAATGAGAAAGAAGAAAAGAACGCATAAATAGC
modifications: N6-methyladenine in place of dA, by PCR with dm6ATP (both strands; primer-derived adenines probably unmodified, primers not given)
B2: dA-dsDNA probe (dsDNA)
DNA 1: GCTATTTATGCGTTCTTTTCTTCTTTCTCATTTCTATATTTATAGTGTGTGTGTGTGTGTGGGTGTGTTTGTTGTATGTGGTTAAATATGCTTCGTTTTTGTTTAATTGGTTTTTGTTTTTGTGATGATCATGGG
DNA 2: CCCATGATCATCACAAAAACAAAAACCAATTAAACAAAAACGAAGCATATTTAACCACATACAACAAACACACCCACACACACACACACACTATAAATATAGAAATGAGAAAGAAGAAAAGAACGCATAAATAGC

Biological target: T1, Jumu FKH domain (SPR) (UniProt Q7K214 391-540)
T1 sequence: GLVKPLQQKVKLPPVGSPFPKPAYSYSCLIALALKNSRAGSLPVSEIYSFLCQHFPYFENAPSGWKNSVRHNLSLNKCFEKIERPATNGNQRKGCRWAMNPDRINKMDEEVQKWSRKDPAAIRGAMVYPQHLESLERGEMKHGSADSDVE
Experiment: SPR; EMSA: 20 mM HEPES pH 7.5, 50 mM KCl, 1 mM DTT (printed DDT), 1 mM EDTA, 0.01 mg/ml BSA, 2% Ficoll 400, 5 ng/µl poly(dI:dC), 25 °C, 15 nM probe; SPR: 20 mM Tris-Cl pH 8.0, 150 mM NaCl, 0.005% Tween 20, 25 °C; pull-down: 50 mM Tris-HCl pH 8, 150 mM NaCl, 1 mM DTT, 0.25% NP40
Details: protein: recombinant; label: 5' and 3' FAM (EMSA); biotin (SPR, pull-down)

| Binder | Kd [µM] |
| --- | --- |
| B1 | 2.37 |
| B2 | 42.1 |
